{
  "source": "patent US20220401484A1",
  "about": "(BIONTECH, published 2022)",
  "binders": {"B1": {"name": "TCR T23.8-2.1-027-004 (TCR, V domains shown)", "V domain 1": "GQQLNQSPQSMFIQEGEDVSMNCTSSSIFNTWLWYKQDPGEGPVLLIALYKAGELTSNGRLTAQFGITRKDSFLNISASIPSDVGIYFCAGLADYGGSQGNLIFGKGTKLSVKP", "V domain 2": "DSGVTQTPKHLITATGQRVTLRCSPRSGDLSVYWYQQSLDQGLQFLIQYYNGEERAKGNILERFSAQQFPDLHSELNLSSLELGDSALYFCASSVWASGGYEQYFGPGTRLTVTE"}, "B2": {"name": "TCR T23.8-2.1-027-004 (TCR, V domains shown)", "Valpha": "B1 V domain 1", "Vbeta": "DSGVTQTPKHLITATGQRVTLRCSPRSGDLSVYWYQQSLDQGLQFLIQYYNGEERAKGNILERFSAQQFPDLHSELNLSSLELGDSALYFCASSVWASGGYEQYFGPGTRLTVT"}},
  "key": {"[1]": {"target": "PRAME peptide … presented by the HLA-A*02:01-encoded molecule (human)", "test": "cell-based or functional assay"}, "[2]": {"target": "T1, PRAME peptide on HLA-A*02:01 (human)", "T1 peptide": "SLLQHLIGL", "test": "IFN-gamma immunoassay; general statement of the description and claim 4; the same paragraph says preferably less than 10^-8 M (FIG. 2); full-length, on cells"}, "[3]": {"target": "T2, irrelevant peptide peptide on HLA-A*02:01 (human)", "T2 peptide": "GLSNTHVL", "test": "cytokine release"}, "[4]": {"target": "T3, PRAME peptide on HLA-A*02:02 (human)", "T3 peptide": "SLLQHLIGL", "test": "cytokine release"}, "[5]": {"target": "T4, PRAME peptide on HLA-A*02:04 (human)", "T4 peptide": "SLLQHLIGL", "test": "cytokine release"}},
  "data": [
    {"binder": "B1", "values": [
      {"measurement": "EC50 value of the relative IFN-gamma release (peptide concentration on T2 cells)", "setting": "[1]", "value": 11.6, "unit": "nM"}
    ]},
    {"binder": "B2", "values": [
      {"measurement": "EC50 of peptide", "setting": "[2]", "value": "< 100", "unit": "nM"},
      {"measurement": "binding result", "setting": "[3]", "value": "no recognition"},
      {"measurement": "binding result", "setting": "[4]", "value": "recognises"},
      {"measurement": "binding result", "setting": "[5]", "value": "recognises"}
    ]}
  ]
}
